In patent US20120263644A1:

Target: leukocyte function antigen-1 (LFA-1), composed of CD11a and CD18, on human white blood cells (human) (UniProt P20701)
Test: cell-based or functional assay

leukocyte function antigen-1 (LFA-1), composed of CD11a and CD18, on human white blood cells (human), sequence (P20701 26-1170, chain 1 of 2): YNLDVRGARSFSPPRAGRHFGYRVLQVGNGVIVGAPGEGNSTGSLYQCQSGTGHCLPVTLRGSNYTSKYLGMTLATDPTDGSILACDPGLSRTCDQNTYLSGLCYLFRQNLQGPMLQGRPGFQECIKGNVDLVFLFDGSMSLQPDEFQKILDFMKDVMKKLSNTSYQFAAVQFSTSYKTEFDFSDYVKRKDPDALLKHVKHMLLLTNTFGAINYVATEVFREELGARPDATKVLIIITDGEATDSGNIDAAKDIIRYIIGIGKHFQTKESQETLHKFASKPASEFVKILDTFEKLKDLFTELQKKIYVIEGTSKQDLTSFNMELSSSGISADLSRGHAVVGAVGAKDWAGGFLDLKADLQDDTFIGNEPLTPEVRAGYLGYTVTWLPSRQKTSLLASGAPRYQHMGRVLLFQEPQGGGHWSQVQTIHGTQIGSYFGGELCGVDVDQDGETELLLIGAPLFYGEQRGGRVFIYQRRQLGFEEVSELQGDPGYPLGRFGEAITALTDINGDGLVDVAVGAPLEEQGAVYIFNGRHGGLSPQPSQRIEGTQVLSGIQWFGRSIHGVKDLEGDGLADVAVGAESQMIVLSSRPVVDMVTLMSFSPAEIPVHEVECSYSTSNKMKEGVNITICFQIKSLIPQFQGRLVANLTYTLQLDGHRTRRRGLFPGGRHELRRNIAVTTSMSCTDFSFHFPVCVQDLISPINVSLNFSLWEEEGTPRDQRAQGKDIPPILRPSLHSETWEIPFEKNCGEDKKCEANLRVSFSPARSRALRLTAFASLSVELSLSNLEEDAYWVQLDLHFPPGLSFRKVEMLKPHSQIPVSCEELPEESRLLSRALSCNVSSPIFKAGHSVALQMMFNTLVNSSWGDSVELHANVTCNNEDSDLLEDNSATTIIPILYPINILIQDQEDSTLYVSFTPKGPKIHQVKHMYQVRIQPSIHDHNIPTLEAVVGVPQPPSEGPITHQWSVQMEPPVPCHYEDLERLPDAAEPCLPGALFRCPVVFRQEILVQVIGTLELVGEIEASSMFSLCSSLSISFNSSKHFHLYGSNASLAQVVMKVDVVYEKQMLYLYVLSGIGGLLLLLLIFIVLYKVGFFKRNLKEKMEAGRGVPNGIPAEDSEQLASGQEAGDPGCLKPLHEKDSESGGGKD
leukocyte function antigen-1 (LFA-1), composed of CD11a and CD18, on human white blood cells (human), sequence (P05107 23-769, chain 2 of 2, further chain): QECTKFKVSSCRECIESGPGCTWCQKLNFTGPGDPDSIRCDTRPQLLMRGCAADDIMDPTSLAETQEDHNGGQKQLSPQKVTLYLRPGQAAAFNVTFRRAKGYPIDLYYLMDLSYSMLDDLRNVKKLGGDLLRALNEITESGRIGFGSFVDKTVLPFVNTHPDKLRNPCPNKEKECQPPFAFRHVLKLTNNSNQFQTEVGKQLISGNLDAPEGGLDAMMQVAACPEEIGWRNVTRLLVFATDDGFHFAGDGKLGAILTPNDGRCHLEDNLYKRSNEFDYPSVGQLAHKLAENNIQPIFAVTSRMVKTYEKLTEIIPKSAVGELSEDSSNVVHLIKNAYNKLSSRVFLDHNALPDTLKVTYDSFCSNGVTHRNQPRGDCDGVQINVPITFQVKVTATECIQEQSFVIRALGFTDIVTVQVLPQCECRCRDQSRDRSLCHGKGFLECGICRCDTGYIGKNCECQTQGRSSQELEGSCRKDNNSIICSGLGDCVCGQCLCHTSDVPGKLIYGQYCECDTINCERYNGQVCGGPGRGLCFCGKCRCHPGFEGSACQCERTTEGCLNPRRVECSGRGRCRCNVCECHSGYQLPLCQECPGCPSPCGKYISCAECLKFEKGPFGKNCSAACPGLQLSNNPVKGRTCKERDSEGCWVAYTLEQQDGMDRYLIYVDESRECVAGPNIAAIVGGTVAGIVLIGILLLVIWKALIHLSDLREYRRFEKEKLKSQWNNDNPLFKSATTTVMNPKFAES

IC50 of inhibition of proliferation of Jurkat cells (CellTiter Glo): 5000 µg/mL
Substance: Efalizumab (RAPTIVA), anti-LFA-1 mAb (antibody)
